Results from patent publication US10357554B2, “AMA-1 epitopes, antibodies, compositions, and methods of making and using the same” (THE UNITED STATES OF AMERICA, AS REPRESENTED BY THE …, dated 2019).
Residue numbers refer to the chain shown, from its start. Read-outs that look alike come from different tables or passages of the source.

T1: AMA-1 on P. falciparum 3D7 strain parasites (Plasmodium falciparum)
T1 chain: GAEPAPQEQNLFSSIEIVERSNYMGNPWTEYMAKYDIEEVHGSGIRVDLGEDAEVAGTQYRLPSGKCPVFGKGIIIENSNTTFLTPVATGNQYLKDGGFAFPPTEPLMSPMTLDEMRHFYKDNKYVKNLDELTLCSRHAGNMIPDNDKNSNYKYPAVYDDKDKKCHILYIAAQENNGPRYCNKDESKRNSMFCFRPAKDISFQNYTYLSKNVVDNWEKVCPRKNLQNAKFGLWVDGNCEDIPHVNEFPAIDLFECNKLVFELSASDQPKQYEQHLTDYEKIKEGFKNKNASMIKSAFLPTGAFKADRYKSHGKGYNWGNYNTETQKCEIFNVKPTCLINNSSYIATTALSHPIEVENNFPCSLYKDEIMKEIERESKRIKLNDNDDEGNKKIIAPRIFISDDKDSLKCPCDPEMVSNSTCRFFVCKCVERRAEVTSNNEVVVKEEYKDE

B1: Monoclonal 1E10 (antibody, V domains shown)
VH: EVQLQESGAELAKPGASVKLSCKASGYTFTNYLMHWIKQRPGQGLEWIGYINHGSGYTNYNQKFIDRATLTADKSSSTAYMQLRSLTYEDSAVYYCVHGYFDVWGTGTTVTVSS
VL: QIVLTQSPTIMSASPGEKVTMTCSASSSVTYMHWYQQKPGTSPKRWIYDTSKLASGVPARFSGSGSGTSYSLTISSMEAEDAATYYCHQRSSYPTFGGGTKLEIKR
B2: Monoclonal 1B10 (antibody, V domains shown)
VH: EVQLQESGPGLVQPSQSLSITCTVSGFSLNMYGVHWVRQSPGKGLEWLGVIWSGGTTDYNAAFISRLSINRDNSKSQVFFKMNSLQTDDTAIYYCVRNNGYYVDAMDYWGQGTSVAVSS
VL: DVVMTQTPLSLPVSLGDQASISCRSSQSLVHSNGNTYLHWYLQRPGQSPKLLIYKVSNRFSGVPDRFSGSGSGTDFTLKISRVEAEDLGVYFCSQSTLGPTFGGGTKLEMQR
B3: Monoclonal 4E8 (antibody, V domains shown)
VH: B2 VH with G26D, N30I, T56S, N70S, R71K, T87A, V96A, A116T
VL: B2 VL with S32N, R44K, S61F, L98H, G99V, M110I, Q111K
B4: Monoclonal 4E11 (antibody, V domains shown)
VH: EVQLQESGPGLVRPSQSLSITCTVSGFSLPLYGVHWVRQSPGKGLEWLGVIWSGGSTDYNAAFVSRLSISKDNSKSQVFFEMNSLQADDTATYYCARNNGYYVDAMDYWGQGTSVTVSS
VL: B2 VL with R44K, Y54F, K79Q, V90F, L98H, G99V, M110I, Q111K

What was measured:
[1] = biological target: AMA-1 on P. falciparum 3D7 strain parasites (Plasmodium falciparum)
[2] = biological target: AMA-1 on P. falciparum 3D7 strain parasites (Plasmodium falciparum); remark: listed apart in the source
[3] = biological target: T1, AMA-1 on P. falciparum 3D7 strain …; experiment: cell-based or functional assay
7 AMA-1 allelic proteins = experiment: dot blot against 7 AMA-1 allelic proteins
[4] = biological target: T1, AMA-1 on P. falciparum 3D7 strain …; experiment: cell-based or functional assay

Row | Molecule | GIA at 1 mg/ml against the 3D7 target strain: Inhibition [1] | IC30 concentration in GIA against 3D7 target parasites [2] | GIA at 1 mg/ml against the 3D7 target strain: Inhibition [3] | Strain reactivity (of 7 AMA-1 allelic proteins) (7 AMA-1 allelic proteins) | IC30 concentration in GIA against 3D7 target parasites [4]
1 | rat mAb 4G2dc1 (antibody) | 22% | 1800 µg/mL |  |  | 
2 | B1 |  |  | 20% | 7 | 1900 µg/mL
3 | B2 |  |  | 65% | 5 | 150 µg/mL
4 | B3 |  |  | 67% | 6 | 150 µg/mL
5 | B4 |  |  | 62% | 5 | 220 µg/mL
